The values that follow come from a protein production outcome set (Wang et al. 2014).
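Note: failed if final PepcDB status was selected cloned or expressed and not failed if soluble or beyond.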

This data set can be described thus: label from the status in PepcDB records.
In the case of “MRSFLLGGVRPRDFWSMLKNLALRVDGEGAMDIGAWLRDQGLGQYEGTFRQNDIDPEVLRHLTAEDLIGVGVASVGHRRKLLAAIAALREVAEQPSGAAGFGATPVINPEAERRQLTVMFVDLVESTRLSSRLDPEEMGELLRGYQRAVAGAIARFEGHVAKYMGDGVLAYFGYPRAHEDEAERAVRAGLAAIDAVRKLQPPHGETLEARVGIATGLVVVGELIGEGAAREETVIGETPNLAARLQSVAEPGAVVVASATRQLIGGLFDLAELGFHPLKGFAASIPAWRVLGESSAESRFEAFHGASLTPLVGREHDIGLLLKRWEAVKKGKGRVVLLAGEPGIGKSRLVRALRRRLEGEPHTTVSHYCSPYHQTSPLYPVIRLLERAAGFAAEDPPEVKLSKLEALLTQSIEEVADAAPLLAALLSVPADDRYQPLELSPHRQKKRMLEVLVDQLIGLAARQPILAVYEDVHWADPTSLELLDLVVDRVQDSPVLVLITFRTEFLPPWTRYPHVTVLTLSRLSRRQGAEMVDRLTGRRALPTEVLDQIVAKTDGVPLFVEELTRAILETSLLKAEGDHYALARPLSAISIPATLHESLLARLDRLAPAREVMQVAAAIGREFSHELLVTAAPLQASEVEEALEDLIASGLVFRHGTPPQLTYSFKHALVRDAAYATLVRTKRQRLHAAIATAIEQRFPEMVQTQPELLAQHYAEAGRLEPAVNYWLRAGQAEIARSATTEAISHLTRGLELLEGLPDDAARLRKELELQVALSVALMTAKGWAAPEVGRANARARNLCERLGDKSRLFPVLYGDWVFHVVRAELEAGRKAGEELLRRAQEEREVSAEIVGNRIAGTGAFLRGEIANAREYLERSLALYDPQQHRALAFLFAQDPRVAGLSVLSLTLFALGYPEQAQARSNEALADARELSHSNTLGFALLYGCILSQLRGDWREARDRAGSLITLARAQGSPHFLGAGKILQGWTLGQTGELPAASTKVQEGLASWQMTGARFLVPYFLSLLARVETQSAGAKRALDLLTDALQRARETGERWFEAELHRLTGELMLQLPAFDRAEGEARLQHAVELARGQGADLWELRAATSLARLRIGQNRFGDVHHLLAPLCGKFAEGFATTDLQSAQRLLREAAGFDGAIKSSD”, the protein production result is “failed”.

On to “MRSLWVFYRTAPDTIVFFDDSPTARFSTVVAFYNHRTGGPMSFAQRDPIGELSLLTHIFIKYREPYVTDGQCRVIVQSKRPIMSSIEQYSQKPFYAHKGTDESSQDTETTEDIVVKEGKHFWIEFDPPEEPFTDTSRRVLRLVRNVEQHRQPGYCTFSKSLFVERNGNDIFKPYRLYPTHNFEDKYFSSAEVKESASLYDLSSLKKNEIRPTLERYEEALKAEVLTPLRNALIPCMVEVYRREIGFESEPDKSLRNASYSSVLSWGSTLRFTLRLWDRIVSGQPLAQVKSEDWFEGTFEKVPSAVSQGARSAIRYYVSDKKLSRDYVLAQALPVYFKWAACREAIQSKLHEQKTDFFAVDTELDKTHVLSGDNVPAKIKKLLEEAAARRKDALSENTIQAYQHAIDHFKSFCERHGPKALPASPETLIAYFEHLAQNGYAESTIRKRRSAIRFLHERSMNESPTTSESVRRYFDDLRKTIPESRGHGQKDPILFHHLHQMSFDEEELSDLRDRAILYIGVATGLRDSGLIGLEMRDIFEKEGGVVYRIRDPKGEGDPGPERVSVPHEVPALTPSPNEALTAWIEAAGIESGAVFRSVDQYGNVGGDDGLSSGSISKDIVKPWMKSIGEDPSEYSCHSLRAGFVTQAILDGITEPRIAAQSRHKSIEALREYERPTNDMKNHMLKEMG”, for which the protein production entry is listed as “failed”. Regarding “MRSMLQDSLVLLDYLRGMLLHNEELWLLLFPVMIIIELPLYLLVLTGIFRWSYMREEPELKRFPSVSFVITCYGEGEAIGITIDTLVEQIYPGHIEILAVVDGAVQNQDTYKAALNGERRHTGVRNRKVRVLPKWQRGGRVSTLNAGLSMASGEIVINVDGDTSFDNDMVFTMMKQFADKNVIASGGALRVRNHNANLLTKMQSLEYMLSMQAGKTGMATWGVLNNISGAFGAFRKNLLKQVGGWDTHTAEDLDLTMRLKQYKCRYPDNKLAFSTHSIGHTDVPDTLKGLVLQRLRWDGDLLFLFLRKHNEGLSPRLLGWGNFVFTLAYGVIQNVLLPLLVVIFSVYMVIVYPLKFVLALMLMLYFVYLFLSALIFVVYIGLVSERKKEDLKSVKWLFLYPVYQFFMRLITAFSMVNEVVRRSHEESSMAPWWVLKRGKKF”, the protein production entry is on record as “failed”. “MRSTEVGRVVEDFIVLPPTPKSKWKLSDFELLHKLGGGNYGDVHLASVKDCNFVCALKRLSIKKLADFDIATQLRREIEIAFNTRHKYLLRTYAYFFDETDIYLIMEPCSNGMLYTELNRVKCFAPPTAARYVAQLAEALLYLHQHHILHRDIKPENILLDHNNNIKLADFGWSVHDPDNRRKTSCGTPEYFPPEIVGRQAYDTSADLWCLGIFCYELLVGKTPFVGKDTDQICKNIHSMHFKIPENIPSEAKDLIANLLLRDGSRRLALHRVVNHQFLLKYYYLPNNLQPPTGKRPRLDAEPTAGKEN”: the protein production result is on record as “failed”. For the sequence “MRTDDSALKNLGKGRESTTLEMKHRELCSGKTIDLGKKMRRALVLDNIRVQSLQLKIKAMTSSTTEQSVSETQIPLTSGIKLESLNYIVTVELGGKNMSLIVDTGSDLTWVQCQPCRSCYNQQGPLYDPSVSSSYKTVFCNSSTCQDLVAATSNSGPCGGNNGVVKTPCEYVVSYGDGSYTRGDLASESILLGDTKLENFVFGCGRNNKGLFGGSSGLMGLGRSSVSLVSQTLKTFNGVFSYCLPSLEDGASGSLSFGNDSSVYTNSTSVSYTPLVQNPQLRSFYILNLTGASIGGVELKSSSFGRGILIDSGTVITRLPPSIYKAVKIEFLKQFSGFPTAPGYSILDTCFNLTSYEDISIPIIKMIFQGNAELEVDVTGVFYFVKPDASLVCLALASLSYENEVGIIGNYQQKNQRVIYDTTQERLGIVGENCRV”, the protein production entry is listed as “failed”.

“MRTIYVIGIGTGSPEFLTLQAISGLRHAQAIVALDKGEQKSDLLALRQKIVDTHAPGTPIYAVTDPERDRNPDNYEEEVRRWHAERAHLLASTIRERTPDDGAVAFLVWGDPSLYDSTLRIIEHMRNLEDLHADVKVIPGITAVQVLTAEHGILINRIGEAIHITTGRNLPETSAKDRRNCVVMLDGKTAWQDVATEHTYMWWGAFLGTEQQVLRKGYVHEIGAQVAELKQQLRTEHGWIMDTYLLRELD”: the protein production entry is listed as “not failed”.

“MRTLKVQALWDGEAGVWVAESDDVPGLATEAATLEELLAKLAVMVPELLEENGVALELPVELRLEATRPLVFS”: the protein production result was “not failed”. For “MRTLNTSAMDGTGLVVERDFSVRILTACFLSLLILSTLLGNTLVCAAVIRFRHLRSKVTNFFVISLAVSDLLVAVLVMPWKAVAEIAGFWPFGSFCNIWVAFDIMCSTASILNLCVISVDRYWAISSPFRYERKMTPKAAFILISVAWTLSVLISFIPVQLSWHKAKPTSPSDGNATSLAETIDNCDSSLSRTYAISSSVISFYIPVAIMIVTYTRIYRIAQKQIRRIAALERAAVHAKNCQTTTGNGKPVECSQPESSFKMSFKRETKVLKTLSVIMGVFVCCWLPFFILNCILPFCGSGETQPFCIDSNTFDVFVWFGWANSSLNPIIYAFNADFRKAFSTLLGCYRLCPATNNAIETVSINNNGAAMFSSHHEPRGSISKECNLVYLIPHAVGSSEDLKKEEAAGIARPLEKLSPALSVILDYDTDVSLEKIQPITQNGQHPT”, the protein production result is “failed”. “MRVAIAGAGAVGRSIAGELLENGHEVLLIDKAPTAISVERVPMAEWLLADACEITSLDEAALQRCNVVIAATGDDKVNLVVSLLAKTEYGVPRVVARVNNPKNEWLFNESWGVDVAVSTPRLMSALVEEAVSVGDLVRLLRFSHGDANLVELTLPEESALAGTQVGDVQWPEDTSLVTIIRGTRVLTPSREDSLEAGDELLFVAAQAREEQLEDLLSARRQPDGTL”: the protein production result is given as “failed”.

Take “MRVAVVGATGAVGREILKVLEARNFPLSELRLYASPRSAGVRLAFRGEEIPVEPLPEGPLPVDLVLASAGGGISRAKALVWAEGGALVVDNSSAWRYEPWVPLVVPEVNREKIFQHRGIIANPNCTTAILAMALWPLHRAFQAKRVIVATYQAASGAGAKAMEELLTETHRFLHGEAPKAEAFAHPLPFNVIPHIDAFQENGYTREEMKVVWETHKIFGDDTIRISATAVRVPTLRAHAEAVSVEFARPVTPEAAREVLKEAPGVEVVDEPEAKRYPMPLTASGKWDVEVGRIRKSLAFENGLDFFVVGDQLLKGAALNAVQIAEEWLKGA”: the protein production entry is on record as “not failed”.

Consider “MRVCAVVVTYNRKDLLVECLEALRRQTGPLDAIYIIDNASTDGTPELLRSRGYRDGAVIENPLDGSEIVIRYVRLPVNTGGAGGFHEGVKRAFHDGYDWIWLMDDDAEPLPDSLQGLLRYADDDTAALANLKVSPDGRPQYIHRGFFDFDSFGTFVRPVTEDDLREETLEIDHASFVGILINSDSVREIGFPRKEFFLHYDDVEYCLRLRSTGKIILVPGSLILHKEAAERGNLTKGLFGREIPVVPYDKLWLRYYGVRNSIWLRRKEMGRARLFIFMVRAILLSVAAQIITGIREKPFRRVRFILSAYSDGLRGRFDNEKPRRILYG”, for which the protein production entry is listed as “failed”. With “MRVFLCGPLASDGLRQRVLGSAPDGVPARLADHALGAAGATVSPMPAPGASVAGLVMELGAEAGARLLHYQTATGHEARTLAVAGAPALVFFAPPEGLEPWDEAAWGALWGPIVVATAGDVMALWPEVPAERIARRYRLMLVQGASRVRAAADPGPARRRHAAQPGDVRIVRRSQPYANFFAVEEYDLSFRSFGGGMSPTLNRAVFISGDAVTVVPYDPVRDRVLLIEQFRPGPLGRGDAQPWLLEPIAGRVDPGETPEAAARREAVEEAGLDLGALLPVASYYPTPAAKAEYLYSYVALAQLDDGIEGIFGMEGEGEDIRGHLMSFDEMMALIRSGEICNGPLLLTALWLDRERPRLRGE”, the protein production result is “failed”. With “MRVGIKVLGCPKNEADCEVLAGVLREGGHEIVFDVKDADVVVLDTCAFIEDAKRESIDEIFSFVDAKDQYGYKLVVKGCLVQRYYEELKKEIPEVDQWIGVADPEEIANAIENGTDLVPDQPETVYRYRKRIDLEERPYAYVKISDGCDRGCTFCSIPSFKGSLRSRSIEDITREVEDLLKEGKKEIILVAQDTTSYGIDLYRKQALPDLLRRLNSLNGEFWIRVMYLHPDHLTEEIISAMLELDKVVKYFDVPVQHGSDKILKLMGRTKSSEELKKMLSSIRERFPDAVLRTSIIVGFPGETEEDFEELKQFVEEIQFDKLGAFVYSDEEGTVAFNLKEKVDPEMAKRRQEELLLLQAEISNSRLDRFVGKKLKFLVEGKEGKFLVGRTWTEAPEVDGVVFVRGKGKIGDFLEVVIKEHDEYDMWGSVILEHHHHHH”, the protein production result is listed as “not failed”. In the case of “MRVISRRTSLILFSGLVFVLASMLLYLYLNSGSEQTQTYNESRDLIRQLKQQDAVWENEVLKARVAVSHNYDPLVIPLKEMKRLWARFDRREAEQGRDESDQWRDAHDGFLSAFGEKARLVEQFKSHNALLRNSLAFLPTAEDGIQAQINTMLAPNRQEVHVFVTDTYDLLLSALEFAQVTSVERAAEIEVGLGNLAVNTENLPKEFQTPLNLLSNHVALILREQPVVNRLLEQIEAIPVAERLDTITSLLDRDQQQVEKINRKNHLYTLWLSGLLMFSVICLAALLVRSFAEVRRVNNALQSANDVLEQRVEERTLALRNAQSELFNAARQAGMAEIATNVLHNVGNVLNSVNTSSDLIARTLRSSKTQGLGKAMQLFREHATDIGRFLDEDPRGRLLPGYLNQLTEAIADEQKEMAIELERMNKSIDHIKEVVATQQSYAGAKNVPEPLSVNDLVEDALRMNAGALTRHQVRVVRDFADLPLVMGDRHRLLLILINLISNAKYAMSGPGSDPRTMILRTRIVEGGLLEMSVLDEGEGIAPENLQKIFAHGFTTRKDGHGFGLHSCALAAIEMNGHLTAHSDGPGLGAVFTLRIPLIAVTEPA” it was “failed”; in that of “MRVLVLHSHPVEESYGKALYRQTVESLQKAGHMVDGCDLYEERFDPVLSRHDRLAYHDYPENLKLVESHVERLKAAEGLVICTPIWNFGFPAILKGYFDRVWLPGVSFELVNGKVESRLRHIRKLAAVLTYGATPFRAFAAGNPPKKIVKRVLRAQINPVRPVTFLAHYDMNNCTPETRAKFLARVGGAMERF”, “failed”.
